We go through one molecule from patent US20130108549A1 (ADLYFE, published 2013).

This assay addresses T1, Aβ42 oligomers (Homo sapiens (Human), UniProt P05067 672-713).
T1 construct: also called oligomers of Aβ42 (including dimers, trimers, tetramers, hexamers and 12-mers); oligomeric forms of Aβ42
Description: pyrene excimer fluorescence, excitation 350 nm, scan 360-600 nm.

pyrene = pyrene fluorescent label

T1 sequence (P05067 672-713 limits assumed): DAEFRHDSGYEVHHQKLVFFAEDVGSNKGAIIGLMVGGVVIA

B1: Peptide probe specific for Aβ (SEQ ID NO:36) labeled at each terminus with pyrene (peptide)
peptide: pyrene-KLVFFAEDVGSNKGAIIGLM-pyrene
notes: also called Aβ peptide probe; dipyrene labeled peptide probe
With B1, the binding result is recorded as “binds”.
